Source: patent US20210395381A1 (OSSIANIX, published 2021)
Substitutions are numbered along the chain they refer to.

B1: Clone 8.84 (VNAR)
VNAR: ARVDQTPQTITKETGESLTINCVLRDSNCALPSTYWYRKKSGSTNEESISKGGRYVETVNSGSKSFSLRINDLTVEDSGTYRCKVIAWQSSILRGCNYRKHDVYGDGTAVTVNA
notes: VNAR on phage; Clone 8 framework
B2: Clone 8.85 (VNAR)
VNAR: B1 VNAR with W88Q, Q89L, S90R, S91K, I92K
notes: as for B1
B3: Clone 8.86 (VNAR)
VNAR: B1 VNAR with W88Q, Q89L, R94V, G95N, N97F
notes: as for B1
B4: Clone 8.87 (VNAR)
VNAR: B1 VNAR with W88Q, Q89F, R94C, G95S, N97R
notes: as for B1
B5: Clone 8.88 (VNAR)
VNAR: B1 VNAR with W88Q, Q89L, R94F, N97A
notes: as for B1
B6: Clone 8.89 (VNAR)
VNAR: B1 VNAR with W88Q, Q89L, R94F, N97D
notes: as for B1
B7: Clone 8.90 (VNAR)
VNAR: B1 VNAR with W88Q, Q89L, R99L, K100Y, H101I
notes: as for B1
B8: Clone 8.91 (VNAR)
VNAR: B1 VNAR with W88Q, Q89L, I92R, L93K, R94G
notes: as for B1
B9: Clone 8.92 (VNAR)
VNAR: B1 VNAR with W88Q, Q89L, S90T, S91Q, I92W
notes: as for B1
B10: Clone 8.93 (VNAR)
VNAR: B1 VNAR with W88Q
notes: as for B1
B11: Clone 8.94 (VNAR)
VNAR: B1 VNAR with W88D, Q89V, S90G
notes: as for B1
B12: Clone 8.95 (VNAR)
VNAR: B1 VNAR with W88Q, Q89L, R94L, G95K, N97E
notes: as for B1
B13: Clone 8.96 (VNAR)
VNAR: B1 VNAR with W88Q, Q89L, I92M, L93Y, R94K
notes: as for B1
B14: Clone 8.98 (VNAR)
VNAR: B1 VNAR with I86L, A87E, W88K, Q89L
notes: as for B1
B15: Clone 8.99 (VNAR)
VNAR: B1 VNAR with I86L, A87F, W88D, Q89L
notes: as for B1
B16: Clone 8.100 (VNAR)
VNAR: B1 VNAR with I86P, A87H, W88M, Q89L
notes: as for B1
B17: Clone 8.101 (VNAR)
VNAR: B1 VNAR with W88Q, Q89L, S90H, S91T, I92H
notes: as for B1
B18: Clone 8.102 (VNAR)
VNAR: B1 VNAR with W88Q, Q89L, N97A, Y98G, R99V
notes: as for B1
B19: Clone 8.103 (VNAR)
VNAR: B1 VNAR with W88Q, Q89L, N97K, Y98Q, R99F, K100E, H101Y
notes: as for B1
B20: Clone 8.104 (VNAR)
VNAR: B1 VNAR with W88Q, Q89L, I92R, L93E, R94L
notes: VNAR on phage; Clone 8 framework; same CDR3 as 8.133
B21: Clone 8.105 (VNAR)
VNAR: B1 VNAR with I86V, W88L, S90E
notes: as for B1
B22: Clone 8.106 (VNAR)
VNAR: B1 VNAR with I86V, W88Q, Q89L, I92H, L93Y, R94D
notes: as for B1
B23: Clone 8.107 (VNAR)
VNAR: B1 VNAR with W88Q, Q89L, R94F, R99F, H101N
notes: as for B1
B24: Clone 8.108 (VNAR)
VNAR: B1 VNAR with W88Q, Q89L, R99K, K100N, H101V
notes: as for B1
B25: Clone 8.109 (VNAR)
VNAR: B1 VNAR with W88Q, Q89L, R99T, K100L, H101Y
notes: as for B1
B26: Clone 8.110 (VNAR)
VNAR: B1 VNAR with W88Q, Q89L, S90K, S91W, I92G
notes: as for B1

How the values were obtained:
recombinant mouse TfR-1 = molecular target: T1, recombinant mouse TfR-1 (mouse, UniProt Q62351 89-763); assay: phage ELISA
T1 construct: Recombinant protein coated at 1 ug/ml in the phage ELISA; also called mTfR1; mouse transferrin receptor-1
T1 sequence (Q62351 89-763 limits assumed): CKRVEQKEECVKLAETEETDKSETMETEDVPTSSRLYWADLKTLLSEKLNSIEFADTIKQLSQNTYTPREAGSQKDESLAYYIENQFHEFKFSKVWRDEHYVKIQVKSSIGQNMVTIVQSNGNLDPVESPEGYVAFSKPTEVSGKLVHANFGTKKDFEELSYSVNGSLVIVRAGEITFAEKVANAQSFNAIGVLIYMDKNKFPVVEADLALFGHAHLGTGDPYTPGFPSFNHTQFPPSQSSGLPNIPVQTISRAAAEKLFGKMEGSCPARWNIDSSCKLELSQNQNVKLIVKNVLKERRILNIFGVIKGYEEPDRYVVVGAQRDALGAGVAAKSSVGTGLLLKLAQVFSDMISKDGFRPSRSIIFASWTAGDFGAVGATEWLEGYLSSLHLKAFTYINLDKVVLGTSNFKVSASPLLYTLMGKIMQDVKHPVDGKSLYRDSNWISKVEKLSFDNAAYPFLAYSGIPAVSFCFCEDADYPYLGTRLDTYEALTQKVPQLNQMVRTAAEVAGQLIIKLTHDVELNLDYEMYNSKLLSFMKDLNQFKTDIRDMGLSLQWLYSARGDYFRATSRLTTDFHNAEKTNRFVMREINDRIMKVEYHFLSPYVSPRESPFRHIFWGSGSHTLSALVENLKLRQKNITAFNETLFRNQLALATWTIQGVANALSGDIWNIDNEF

recombinant human TfR-1 = molecular target: T2, recombinant human TfR-1 (human, UniProt P02786 89-760); assay: phage ELISA
T2 construct: Recombinant protein coated at 1 ug/ml in the phage ELISA; also called hTfR1; human transferrin receptor-1
T2 sequence (P02786 89-760 limits assumed): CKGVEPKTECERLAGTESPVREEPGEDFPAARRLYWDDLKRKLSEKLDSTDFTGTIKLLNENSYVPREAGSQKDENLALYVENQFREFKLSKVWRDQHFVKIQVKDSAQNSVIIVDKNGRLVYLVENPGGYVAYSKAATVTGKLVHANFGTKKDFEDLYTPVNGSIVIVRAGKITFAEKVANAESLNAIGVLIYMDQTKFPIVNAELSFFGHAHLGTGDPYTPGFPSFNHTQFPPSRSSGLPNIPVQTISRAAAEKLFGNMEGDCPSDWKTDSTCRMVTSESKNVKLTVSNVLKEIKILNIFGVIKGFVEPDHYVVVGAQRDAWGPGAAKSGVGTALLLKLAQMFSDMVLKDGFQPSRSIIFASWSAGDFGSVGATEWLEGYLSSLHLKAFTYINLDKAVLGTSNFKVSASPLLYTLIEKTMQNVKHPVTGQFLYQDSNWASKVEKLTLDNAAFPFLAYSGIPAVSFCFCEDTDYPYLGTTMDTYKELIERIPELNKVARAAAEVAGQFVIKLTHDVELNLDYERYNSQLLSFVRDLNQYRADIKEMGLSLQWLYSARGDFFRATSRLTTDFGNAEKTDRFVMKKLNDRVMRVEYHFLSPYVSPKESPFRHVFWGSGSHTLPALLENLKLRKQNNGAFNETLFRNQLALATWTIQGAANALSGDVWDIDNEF

Binder | A450 (recombinant mouse TfR-1) [A450] | A450 (recombinant human TfR-1) [A450]
B1 | 0.057 | 0.058
B2 | 0.056 | 0.059
B3 | 0.056 | 0.053
B4 | 0.055 | 0.07
B5 | 0.055 | 0.05
B6 | 0.055 | 0.048
B7 | 0.055 | 0.054
B8 | 0.055 | 0.071
B9 | 0.055 | 0.051
B10 | 0.055 | 0.05
B11 | 0.054 | 0.06
B12 | 0.054 | 0.049
B13 | 0.054 | 0.051
B14 | 0.053 | 0.055
B15 | 0.053 | 0.059
B16 | 0.053 | 0.048
B17 | 0.052 | 0.048
B18 | 0.052 | 0.049
B19 | 0.052 | 0.05
B20 | 0.052 | 0.05
B21 | 0.051 | 0.047
B22 | 0.051 | 0.054
B23 | 0.051 | 0.048
B24 | 0.051 | 0.044
B25 | 0.051 | 0.055
B26 | 0.05 | 0.055
